The target in the experiment is VqERF1B-mCherry (Vitis quinquangularis accession 'Danfeng-2'). Nature of the experiment: FRET or BRET. (In BRET a luciferase serves as donor, and the signal depends on an acceptor being close.)

With VqERF062-GFP (natural protein), the FRET efficiency was 32%.

The record behind these values is publication PMC12120875.
